Values belong to the binder of their own block, whether it stands above or below them.
Columns and labels:
Assay in all cases: ELISA on coated B7 family protein
[1] = molecular target: T1, CD275/ICOS ligand protein, human, recombinant (Fc tag) (Sino Biological, 11559-H02H) (human, UniProt O75144 19-258)
T1 construct: Bought; also called B7H2
T1 sequence (looked up): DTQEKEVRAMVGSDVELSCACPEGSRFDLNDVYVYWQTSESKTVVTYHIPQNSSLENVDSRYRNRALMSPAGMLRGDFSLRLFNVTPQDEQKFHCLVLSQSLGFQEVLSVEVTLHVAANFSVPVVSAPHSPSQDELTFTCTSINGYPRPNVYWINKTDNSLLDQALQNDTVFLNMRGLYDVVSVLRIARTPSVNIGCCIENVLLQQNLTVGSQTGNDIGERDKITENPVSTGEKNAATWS
Method: (§1) B7 family proteins (see Table 7 for details) were respectively diluted to […] with PBS, added into a 96-well plate (Corning, #9018) at 100 μl/well, and incubated at 4° C. overnight. After the liquid was discarded, the plate was washed 3 times with a PBST buffer (pH 7.4, containing 0.05% tween-20), 250 μl of blocking solution containing 2% BSA was added, and the plate was incubated for 1 hour at 37° C. The blocking solution was discarded, the plate was washed 3 times with PBST buffer (pH 7.4, containing 0.05% Tween-20), the antigen-binding protein to be tested was diluted to 2 concentrations of 10 nM and 1 nM, 100 μl of the diluted antigen-binding protein was added to each well, and the plate was incubated for 1 hour at 37° C., with the isotype antibody as the control. After the plate was washed 3 times with PBST buffer (pH 7.4, containing 0.05% Tween-20), goat anti-human HRP secondary antibody (Invitrogen, #A18805) diluted 5000 times was added, and the plate was incubated at 37° C. for 1 hour in the dark. After the plate was washed 3 times with PBST buffer (pH 7.4, containing 0.05% tween-20), TMB (Biopanda, #TMB-S-003) was added at 100 μl/well, and the plate was placed at room temperature for about 30 minutes in the dark; and a stop solution (BBI life sciences, #E661006-0200) was added to each well at 50 μl/well to stop the reaction, and the absorbance at 450 nm (OD450) was determined in a microplate reader (PerkinElemer, #Enspire).

[2] = molecular target: T2, Human B7-2/CD86 protein, Fc tag (Acro, CD6-H5257) (human, UniProt P42081 26-247)
T2 construct: Bought
T2 sequence (looked up): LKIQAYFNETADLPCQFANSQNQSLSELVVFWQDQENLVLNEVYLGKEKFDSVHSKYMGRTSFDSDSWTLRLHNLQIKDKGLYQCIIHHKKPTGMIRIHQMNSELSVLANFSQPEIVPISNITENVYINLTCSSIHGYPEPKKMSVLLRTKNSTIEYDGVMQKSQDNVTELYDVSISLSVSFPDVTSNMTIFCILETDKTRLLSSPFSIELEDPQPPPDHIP
Method: as §1

[3] = molecular target: T3, Human PD-L1/B7-H1 protein, His tag (Acro, PD1-H5229) (human, UniProt Q9NZQ7 19-238)
T3 construct: Bought
T3 sequence (Q9NZQ7 19-238 limits assumed): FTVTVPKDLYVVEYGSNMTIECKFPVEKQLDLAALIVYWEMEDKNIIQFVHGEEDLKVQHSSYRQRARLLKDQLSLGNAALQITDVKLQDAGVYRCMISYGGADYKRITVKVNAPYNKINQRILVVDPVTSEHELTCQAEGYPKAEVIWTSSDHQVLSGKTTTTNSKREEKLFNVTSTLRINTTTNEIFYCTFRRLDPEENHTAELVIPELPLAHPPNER
Method: as §1

[4] = molecular target: T4, Human B7-1/CD80 protein, Fc tag (Acro, B71-H5259) (human, UniProt P33681 35-242)
T4 construct: Bought
T4 sequence (looked up): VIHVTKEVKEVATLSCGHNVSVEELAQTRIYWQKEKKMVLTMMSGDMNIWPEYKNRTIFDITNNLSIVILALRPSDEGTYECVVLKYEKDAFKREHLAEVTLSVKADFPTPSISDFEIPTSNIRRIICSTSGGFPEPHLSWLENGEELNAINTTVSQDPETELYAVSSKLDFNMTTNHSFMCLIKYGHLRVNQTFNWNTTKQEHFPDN
Method: as §1

[5] = molecular target: T5, B7-H3/CD276 protein, human, recombinant (ECD, Fc tag) (Sino Biological, 11188-H02H) (human, UniProt Q5ZPR3 29-466)
T5 construct: extracellular domain; Bought
T5 sequence (looked up): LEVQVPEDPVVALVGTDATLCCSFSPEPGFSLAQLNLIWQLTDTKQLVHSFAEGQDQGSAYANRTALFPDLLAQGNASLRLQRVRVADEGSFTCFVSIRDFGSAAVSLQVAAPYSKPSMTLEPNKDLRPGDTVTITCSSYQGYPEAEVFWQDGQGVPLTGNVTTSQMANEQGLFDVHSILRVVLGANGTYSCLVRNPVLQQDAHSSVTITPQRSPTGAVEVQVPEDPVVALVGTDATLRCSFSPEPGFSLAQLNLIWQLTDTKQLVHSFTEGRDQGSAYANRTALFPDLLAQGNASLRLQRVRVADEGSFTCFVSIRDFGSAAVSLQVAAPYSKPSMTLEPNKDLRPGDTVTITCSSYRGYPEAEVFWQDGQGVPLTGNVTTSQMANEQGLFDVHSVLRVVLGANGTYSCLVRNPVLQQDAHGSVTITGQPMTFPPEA
Method: as §1

[6] = molecular target: T6, Recombinant human B7H4 Fc chimera (R&D, 8870-B7-050) (human, UniProt Q7Z7D3 29-258)
T6 construct: Bought
T6 sequence (looked up): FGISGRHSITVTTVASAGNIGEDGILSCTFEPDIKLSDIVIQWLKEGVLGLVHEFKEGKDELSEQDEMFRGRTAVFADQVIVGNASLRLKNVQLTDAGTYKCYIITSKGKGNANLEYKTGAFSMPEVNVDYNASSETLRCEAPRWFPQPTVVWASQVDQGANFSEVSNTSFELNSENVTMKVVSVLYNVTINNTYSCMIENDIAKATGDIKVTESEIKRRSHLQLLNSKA
Method: as §1

[7] = molecular target: T7, Recombinant human VISTA/B7H5/PD-1H Fc chimera (R&D, 7126-B7-050) (human, UniProt Q9H7M9 33-194)
T7 construct: Bought
Method: as §1

[8] = molecular target: T8, Human B7-DC/PD-L2/CD273 protein, recombinant (Fc tag) (Sino Biological, H10292-H02H) (human, UniProt Q9BQ51 20-219)
T8 construct: Bought
T8 sequence (looked up): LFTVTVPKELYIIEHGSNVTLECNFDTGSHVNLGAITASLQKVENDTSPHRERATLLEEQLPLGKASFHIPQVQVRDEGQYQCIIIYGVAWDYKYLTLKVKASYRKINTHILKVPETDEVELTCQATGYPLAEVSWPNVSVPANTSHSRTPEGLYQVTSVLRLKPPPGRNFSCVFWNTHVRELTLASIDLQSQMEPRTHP
Method: as §1

binding result [1]: no binding (tested: 10 nM)
binding result [2]: no binding (tested: 10 nM)
binding result [3]: no binding (tested: 10 nM)
binding result [4]: no binding (tested: 10 nM)
binding result [5]: no binding (tested: 10 nM)
binding result [6]: no binding (tested: 10 nM)
binding result [7]: no binding (tested: 10 nM)
binding result [8]: no binding (tested: 10 nM)
B1: PR004263 (antibody, human IgG1, kappa, L234A L235A)
heavy: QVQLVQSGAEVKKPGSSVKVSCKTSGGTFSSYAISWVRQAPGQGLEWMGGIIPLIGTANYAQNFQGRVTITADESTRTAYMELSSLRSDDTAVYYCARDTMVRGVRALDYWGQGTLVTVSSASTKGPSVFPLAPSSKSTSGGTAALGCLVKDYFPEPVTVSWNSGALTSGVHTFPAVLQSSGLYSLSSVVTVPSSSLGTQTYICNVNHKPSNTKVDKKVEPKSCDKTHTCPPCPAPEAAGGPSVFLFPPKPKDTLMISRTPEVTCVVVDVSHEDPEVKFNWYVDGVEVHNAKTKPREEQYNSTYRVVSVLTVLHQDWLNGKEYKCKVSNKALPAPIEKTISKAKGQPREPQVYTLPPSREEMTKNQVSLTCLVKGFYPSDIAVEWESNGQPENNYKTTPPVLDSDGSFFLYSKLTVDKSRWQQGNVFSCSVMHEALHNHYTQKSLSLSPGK
light: DIQLTQSPSFLSASVGDRVTITCRASQGISSYFAWYQQKPGKAPKLLIYAASTLQSGVPSRFSGSGSGTEFTLTISSLQPEDFATYYCQHLNRYPWTFGQGTKVEIKRTVAAPSVFIFPPSDEQLKSGTASVVCLLNNFYPREAKVQWKVDNALQSGNSQESVTEQDSKDSTYSLSSTLTLSKADYEKHKVYACEVTHQGLSSPVTKSFNRGEC
notes: Variant of PR003264; Human IgG1 with LALA mutation in Fc

binding result [1]: no binding (tested: 10 nM)
binding result [2]: no binding (tested: 10 nM)
binding result [3]: no binding (tested: 10 nM)
binding result [4]: no binding (tested: 10 nM)
binding result [5]: no binding (tested: 10 nM)
binding result [6]: no binding (tested: 10 nM)
binding result [7]: no binding (tested: 10 nM)
binding result [8]: no binding (tested: 10 nM)
B2: PR004260 (antibody, human IgG1, kappa, L234A L235A)
heavy: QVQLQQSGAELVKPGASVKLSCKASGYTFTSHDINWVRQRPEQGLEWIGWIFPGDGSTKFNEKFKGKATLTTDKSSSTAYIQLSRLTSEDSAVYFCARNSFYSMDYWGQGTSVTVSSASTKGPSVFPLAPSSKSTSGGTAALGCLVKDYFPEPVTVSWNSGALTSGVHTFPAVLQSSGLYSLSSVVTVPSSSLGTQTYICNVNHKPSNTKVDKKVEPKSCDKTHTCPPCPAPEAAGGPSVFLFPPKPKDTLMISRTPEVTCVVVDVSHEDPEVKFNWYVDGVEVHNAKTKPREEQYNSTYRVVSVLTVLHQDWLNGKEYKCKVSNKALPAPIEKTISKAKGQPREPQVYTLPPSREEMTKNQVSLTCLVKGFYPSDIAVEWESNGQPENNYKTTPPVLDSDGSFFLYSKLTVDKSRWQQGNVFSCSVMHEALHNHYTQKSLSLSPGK
light: DIVMSQSPSSLAVSAGEKVTMSCKSSQSLLNSRTRKNQLAWYQQKPGQSPKLLIYWASTRESGVPDRFTGSGSGTDFTLTISSVQAEDLAVYYCKQSYNLRTFGGGTKLEIKRTVAAPSVFIFPPSDEQLKSGTASVVCLLNNFYPREAKVQWKVDNALQSGNSQESVTEQDSKDSTYSLSSTLTLSKADYEKHKVYACEVTHQGLSSPVTKSFNRGEC
notes: Variant of PR003181; Human IgG1 with LALA mutation in Fc

Source: patent US20250136696A1 (HARBOUR BIOMED SHANGHAI, published 2025)
